Reference: IntAct's records for PubMed 20346719

B1: Flagellar motor switch protein FliG (Escherichia coli (strain K12)), P0ABZ1 (parent)
chain: MSNLTGTDKSVILLMTIGEDRAAEVFKHLSQREVQTLSAAMANVTQISNKQLTDVLAEFEQEAEQFAALNINANDYLRSVLVKALGEERAASLLEDILETRDTASGIETLNFMEPQSAADLIRDEHPQIIATILVHLKRAQAADILALFDERLRHDVMLRIATFGGVQPAALAELTEVLNGLLDGQNLKRSKMGGVRTAAEIINLMKTQQEEAVITAVREFDGELAQKIIDEMFLFENLVDVDDRSIQRLLQEVDSESLLIALKGAEQPLREKFLRNMSQRAADILRDDLANRGPVRLSQVENEQKAILLIVRRLAETGEMVIGSGEDTYV
partner: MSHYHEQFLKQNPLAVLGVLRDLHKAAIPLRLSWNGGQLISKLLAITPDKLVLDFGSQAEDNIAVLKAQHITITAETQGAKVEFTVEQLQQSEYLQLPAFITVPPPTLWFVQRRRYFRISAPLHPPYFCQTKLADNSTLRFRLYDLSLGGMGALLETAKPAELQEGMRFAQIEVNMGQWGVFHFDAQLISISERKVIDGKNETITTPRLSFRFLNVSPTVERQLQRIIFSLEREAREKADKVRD
B2: Flagellar motor switch protein FliM (Escherichia coli (strain K12)), P06974 (parent)
chain: MGDSILSQAEIDALLNGDSEVKDEPTASVSGESDIRPYDPNTQRRVVRERLQALEIINERFARHFRMGLFNLLRRSPDITVGAIRIQPYHEFARNLPVPTNLNLIHLKPLRGTGLVVFSPSLVFIAVDNLFGGDGRFPTKVEGREFTHTEQRVINRMLKLALEGYSDAWKAINPLEVEYVRSEMQVKFTNITTSPNDIVVNTPFHVEIGNLTGEFNICLPFSMIEPLRELLVNPPLENSRNEDQNWRDNLVRQVQHSQLELVANFADISLRLSQILKLNPGDVLPIEKPDRIIAHVDGVPVLTSQYGTLNGQYALRIEHLINPILNSLNEEQPK
partner: B1 partner

Variants of: B1
Conditions: with ycgr_ecoli ycgR

Row | effect of a mutation on the interaction | Variant
1 | decreasing interaction | MSNLTGTDKSVILLMTIGEDRAAEVFKHLSQREVQTLSAAMANVTQISNKQLTDVLAEFEQEAEQFAALNINANDYLRSVLVKALGEERAASLLEDILETRDTASGIETLNFMEPQSAADLIRDEHPQIIATILVHLKRAQAADILALFDERLRHDVMLRIATFGGVQPAALAELTEVLNGLLDGQNLKRSKMGGVRTAAEIINLMKTQQEEAVITAVREFDGELAQKIIDEMFLFENLVDVDDRSIQRLLWEVDSESLLIALKGAEQPLREKFLRNMSQRAADILRDDLANRGPVRLSQVENEQKAILLIVRRLAETGEMVIGSGEDTYV [Q252W]
2 | decreasing interaction | MSNLTGTDKSVILLMTIGEDRAAEVFKHLSQREVQTLSAAMANVTQISNKQLTDVLAEFEQEAEQFAALNINANDYLRSVLVKALGEERAASLLEDILETRDTASGIETLNFMEPQSAADLIRDEHPQIIATILVHLKRAQAADILALFDERLRHDVMLRIATFGGVQPAALAELTEVLNGLLDGQNLKRSKMGGVRTAAEIINLMKTQQEEAVITAVREFDGELAQKIIDEMFLFENLVDVDDRSIQRLLQEVDSESLLIALKGAEQPLREKFLRNMSQRAADILRDDLANRGWVRLSQVENEQKAILLIVRRLAETGEMVIGSGEDTYV [P295W]
3 | decreasing interaction | MSNLTGTDKSVILLMTIGEDRAAEVFKHLSQREVQTLSAAMANVTQISNKQLTDVLAEFEQEAEQFAALNINANDYLRSVLVKALGEERAASLLEDILETRDTASGIETLNFMEPQSAADLIRDEHPQIIATILVHLKRAQAADILALFDERLRHDVMLRIATFGGVQPAALAELTEVLNGLLDGQNLKRSKMGGVRTAAEIINLMKTQQEEAVITAVREFDGELAQKIIDEMFLFENLVDVDDRSIQRLLQEVDSESLLIALKGAEQPLREKFLRNMSQRAADILRDDLAWRGPVRLSQVENEQKAILLIVRRLAETGEMVIGSGEDTYV [N292W]

Variants of: B2
Conditions: with ycgr_ecoli ycgR

Row | effect of a mutation on the interaction | Variant
4 | decreasing interaction | MGDSILSQAEIDALLNGDSEVKDEPTASVSGESDIRPYDPNTQRRVVRERLQALEIINERFARHFRMGLFNLLRRSPDITVGAIRIQPYHEFARNLPVPTNLNLIHLKPLRGTGLVVFSPSLVFIAVDNLFGGDGRFPTKVEGREFTHTEQRDINRMLKLALEGYSDAWKAINPLEVEYVRSEMQVKFTNITTSPNDIVVNTPFHVEIGNLTGEFNICLPFSMIEPLRELLVNPPLENSRNEDQNWRDNLVRQVQHSQLELVANFADISLRLSQILKLNPGDVLPIEKPDRIIAHVDGVPVLTSQYGTLNGQYALRIEHLINPILNSLNEEQPK [V153D]
5 | decreasing interaction | MGDSILSQAEIDALLNGDSEVKDEPTASVSGESDIRPYDPNTQRRVVRERLQALEIINERFARHFRMGLFNLLRRSPDITVGAIRIQPYHEFARNLPVPTNLNLIHLKPLRGTGLVVFSPSLVFIAVDNLFGGDGRFPTKVEGREFTHTEQRVINRMLKLALEGYSRAWKAINPLEVEYVRSEMQVKFTNITTSPNDIVVNTPFHVEIGNLTGEFNICLPFSMIEPLRELLVNPPLENSRNEDQNWRDNLVRQVQHSQLELVANFADISLRLSQILKLNPGDVLPIEKPDRIIAHVDGVPVLTSQYGTLNGQYALRIEHLINPILNSLNEEQPK [D167R]
6 | disrupting interaction | MGDSILSQAEIDALLNGDSEVKDEPTASVSGESDIRPYDPNTQRRVVRERLQALEIINERFARHFRMGLFNLLRRSPDITVGAIRIQPYHEFARNLPVPTNLNLIHLKPLRGTGLVVFSPSLVFIAVDNLFGGDGRFPTKVEGREFTHTEQRVINRMLKEALEGYSDAWKAINPLEVEYVRSEMQVKFTNITTSPNDIVVNTPFHVEIGNLTGEFNICLPFSMIEPLRELLVNPPLENSRNEDQNWRDNLVRQVQHSQLELVANFADISLRLSQILKLNPGDVLPIEKPDRIIAHVDGVPVLTSQYGTLNGQYALRIEHLINPILNSLNEEQPK [L160E]
7 | disrupting interaction | MGDSILSQAEIDALLNGDSEVKDEPTASVSGESDIRPYDPNTQRRVVRERLQALEIINERFARHFRMGLFNLLRRSPDITVGAIRIQPYHEFARNLPVPTNLNLIHLKPLRGTGLVVFSPSLVFIAVDNLFGGDGRFPTKVEGREFTHTEQRVINEMLKLALEGYSDAWKAINPLEVEYVRSEMQVKFTNITTSPNDIVVNTPFHVEIGNLTGEFNICLPFSMIEPLRELLVNPPLENSRNEDQNWRDNLVRQVQHSQLELVANFADISLRLSQILKLNPGDVLPIEKPDRIIAHVDGVPVLTSQYGTLNGQYALRIEHLINPILNSLNEEQPK [R156E]
8 | decreasing interaction | MGDSILSQAEIDALLNGDSEVKDEPTASVSGESDIRPYDPNTQRRVVRERLQALEIINERFARHFRMGLFNLLRRSPDITVGAIRIQPYHEFARNLPVPTNLNLIHLKPLRGTGLVVFSPSLVFIAVDNLFGGDGRFPTKVEGREFTHTEQRVIERMLKLALEGYSDAWKAINPLEVEYVRSEMQVKFTNITTSPNDIVVNTPFHVEIGNLTGEFNICLPFSMIEPLRELLVNPPLENSRNEDQNWRDNLVRQVQHSQLELVANFADISLRLSQILKLNPGDVLPIEKPDRIIAHVDGVPVLTSQYGTLNGQYALRIEHLINPILNSLNEEQPK [N155E]
9 | decreasing interaction | MGDSILSQAEIDALLNGDSEVKDEPTASVSGESDIRPYDPNTQRRVVRERLQALEIINERFARHFRMGLFNLLRRSPDITVGAIRIQPYHEFARNLPVPTNLNLIHLKPLRGTGLVVFSPSLVFIAVDNLFGGDGRFPTKVEGREFTHTEQRVINRMLKLALEGYSDAWKAINPLRVEYVRSEMQVKFTNITTSPNDIVVNTPFHVEIGNLTGEFNICLPFSMIEPLRELLVNPPLENSRNEDQNWRDNLVRQVQHSQLELVANFADISLRLSQILKLNPGDVLPIEKPDRIIAHVDGVPVLTSQYGTLNGQYALRIEHLINPILNSLNEEQPK [E176R]
